Substrate in this data set: O=[N+]([O-])c1ccccc1O[C@@H]1O[C@H](CO)[C@H](O)[C@H](O)[C@H]1O
The data set can be described thus: purified protein. The format is biochemical, Chlamydomonas reinhardtii. Particulars: 30 mM magnesium chloride buffer, pH 7.3, 37 °C, MBP fusion.

B1: CrGH (Chlamydomonas reinhardtii) (protein)
chain: MTGSGKPAANKATANGDGEPVRFLKGAAISVWQNSGDDDSNWTRFAKSRWPFRSFGVSAIRGKYNIDKCSDFWNNYERDIKLAADIGSTTFRFSIEWARIEPLRGVFDMEAVHRYHQMLDCMAAHGLVPNATLWHFVHPTWFEQAGGWTKEENIPAFVRFSVKCFEWFKDKITLWATFNEPTCYMFLAFIVGIAPPGRIMDLVTAGRMLSTMLKAHTATYRAIKAAPGGQAAQVGLVSHHITFEPQGTGILYGVSKVLSDWMTYWWGWDVVHHWMLTGEFVWKLPVLGVWQRWQDPAGRPPCDWWGINYYSRGIFSWYLAPSCRESEVMTDMYYPIYPEGLYKCIKRCSEFGIPMYITETGIADARDDRRALMIDSYMKATLRAVAEGCDVRGLYYWTLLDNLEWATGYTMKFGLYAWEPDGSVDRKLKEGSKTLVRYFKTLPDDLAGVRAAARQVQGQLGEDLGVEAALEEEGVTRVAAGGKLVVGEAAGKGGEAEGRKAVGMVAIG
notes: full-length CDS (1527-bp ORF, about 508 residues) in pMAL-c5x, MBP fusion, about 98 kDa, E. coli BL21(DE3), amylose resin; tag cleavage not mentioned; GH family 1, motifs TFNEP and ITETG
B1: the Km was determined as 13.98 µM and the kcat is 3.62 s⁻¹.
